Laboratory results taken from the Immune Epitope Database (IEDB).

Legend:
HLA-B*27:05 [1] = assay: IEDB peptide-MHC binding, cellular MHC/competitive/radioactivity; ≥ and ≤ were set here for values at or beyond the usual limits of such assays; conditions: source organism: Hepacivirus hominis
HLA-A*02:50 = assay: IEDB peptide-MHC binding, purified MHC/competitive/fluorescence; filed as Kd, often an IC50 or EC50 that approximates it; ≥ and ≤ were set here for values at or beyond the usual limits of such assays; conditions: source organism: Vibrio vulnificus YJ016
HLA-A*11:01 = assay: IEDB peptide-MHC binding, purified MHC/direct/fluorescence; filed as Kd, often an IC50 or EC50 that approximates it; ≥ and ≤ were set here for values at or beyond the usual limits of such assays; conditions: source organism: Vibrio vulnificus
HLA-B*08:01 = assay: as above; conditions: source organism: Vibrio vulnificus CMCP6
HLA-B*58:01 [2] = assay: as above; conditions: source organism: Vibrio vulnificus
HLA-A*02:03 [3] = assay: as above; conditions: source organism: Vibrio vulnificus CMCP6
HLA-B*18:01 = assay: as above
HLA-A*02:12 = assay: as above
HLA-B*40:01 = assay: as above; conditions: source organism: Vibrio vulnificus
HLA-A*02:19 = assay: as above; conditions: source organism: Vibrio vulnificus CMCP6
HLA-A*01:01 [4] = assay: as above; conditions: source organism: Vibrio vulnificus
HLA-A*02:06 [5] = assay: as above
HLA-B*08:02 = assay: as above; conditions: source organism: Vibrio vulnificus CMCP6
HLA-B*46:01 = assay: as above
HLA-A*02:01 [6] = assay: as above
HLA-B*07:02 = assay: as above; conditions: source organism: Vibrio vulnificus
HLA-B*44:02 = assay: as above; conditions: source organism: Vibrio vulnificus
HLA-B*15:01 = assay: as above
HLA-A*02:11 = assay: as above; conditions: source organism: Vibrio vulnificus CMCP6
HLA-A*31:01 = assay: as above; conditions: source organism: Vibrio vulnificus
HLA-A*69:01 = assay: as above; conditions: source organism: Vibrio vulnificus
HLA-A*03:01 = assay: as above
HLA-B*27:05 [7] = assay: as above; conditions: source organism: Vibrio vulnificus
HLA-A*24:02 = assay: as above; conditions: source organism: Vibrio vulnificus
HLA-A*02:03 [8] = assay: IEDB peptide-MHC binding, purified MHC/competitive/radioactivity; ≥ and ≤ were set here for values at or beyond the usual limits of such assays; conditions: source organism: Hepatitis C virus (isolate H77)
HLA-A*02:06 [9] = assay: as above; conditions: source organism: Hepatitis C virus (isolate H77)
HLA-A*02:01 [10] = assay: as above; conditions: source organism: Hepatitis C virus (isolate H77)
HLA-A*02:02 = assay: as above; conditions: source organism: Hepatitis C virus (isolate H77)
HLA-B*58:01 [11] = assay: IEDB peptide-MHC binding, purified MHC/competitive/fluorescence; filed as Kd, often an IC50 or EC50 that approximates it; ≥ and ≤ were set here for values at or beyond the usual limits of such assays; conditions: source organism: Shigella flexneri 2a str. 2457T
HLA-A*01:01 [12] = assay: as above; conditions: source organism: Shigella flexneri 2a str. 2457T
HLA-B*35:01 = assay: as above; conditions: source organism: Shigella flexneri 2a str. 2457T
HLA-C*08:02 = assay: IEDB peptide-MHC binding, purified MHC/direct/fluorescence; filed as Kd, often an IC50 or EC50 that approximates it; ≥ and ≤ were set here for values at or beyond the usual limits of such assays; conditions: source organism: Shigella flexneri 2a str. 2457T
HLA-C*04:01 [13] = assay: as above; conditions: source organism: Shigella flexneri 2a str. 2457T
HLA-B*27:03 = assay: as above; conditions: source organism: Salmonella enterica subsp. enterica serovar Typhimurium
HLA-B*57:01 = assay: as above; conditions: source organism: Salmonella enterica subsp. enterica serovar Typhimurium
HLA-B*15:42 = assay: IEDB peptide-MHC binding, purified MHC/competitive/fluorescence; filed as Kd, often an IC50 or EC50 that approximates it; ≥ and ≤ were set here for values at or beyond the usual limits of such assays; conditions: source organism: Acetivibrio thermocellus ATCC 27405
HLA-B*83:01 = assay: as above; conditions: source organism: Acetivibrio thermocellus ATCC 27405
HLA-C*04:01 [14] = assay: as above; conditions: source organism: Acetivibrio thermocellus ATCC 27405
HLA-B*45:06 = assay: as above; conditions: source organism: Acetivibrio thermocellus ATCC 27405
HLA-C*14:02 = assay: IEDB peptide-MHC binding, purified MHC/direct/fluorescence; filed as Kd, often an IC50 or EC50 that approximates it; ≥ and ≤ were set here for values at or beyond the usual limits of such assays; conditions: source organism: Variola virus
[15] = source organism: Vibrio vulnificus
[16] = source organism: Vibrio vulnificus CMCP6
[17] = source organism: Salmonella enterica subsp. enterica serovar Typhimurium

ARHTPVNSW showed an IC50 (HLA-B*27:05 [1]) of 338 nM.

Sequence GLKELGDWV has a Kd (HLA-A*02:50) of no more than 0.1 nM, a Kd (HLA-A*11:01) of no less than 20000 nM and a Kd (HLA-B*08:01) of no less than 20000 nM. The Kd (HLA-B*58:01 [2]) was no less than 20000 nM, the Kd (HLA-A*02:03 [3]) was 2 nM and the Kd (HLA-B*18:01; [15]) was no less than 20000 nM. For the same sequence, the Kd (HLA-A*02:12; [16]) was 120 nM, the Kd (HLA-B*40:01) was no less than 20000 nM and the Kd (HLA-A*02:19) was no less than 20000 nM. The Kd (HLA-A*01:01 [4]) was no less than 20000 nM, the Kd (HLA-A*02:06 [5]; [16]) was 145 nM and the Kd (HLA-B*08:02) was no less than 20000 nM. The Kd (HLA-B*46:01; [15]) was no less than 20000 nM, the Kd (HLA-A*02:01 [6]; [15]) was 637 nM and the Kd (HLA-B*07:02) was no less than 20000 nM. The Kd (HLA-B*44:02) was no less than 20000 nM, the Kd (HLA-B*15:01; [15]) was no less than 20000 nM and the Kd (HLA-A*02:11) was 9 nM. It also gave a Kd (HLA-A*31:01) of no less than 20000 nM, a Kd (HLA-A*69:01) of no less than 5000 nM and a Kd (HLA-A*03:01; [15]) of no less than 20000 nM. It also gave a Kd (HLA-B*27:05 [7]) of no less than 20000 nM and a Kd (HLA-A*24:02) of no less than 20000 nM.

In the case of KLVGLGLNAV, the IC50 (HLA-A*02:03 [8]) is reported as 8.2 nM, the IC50 (HLA-A*02:06 [9]) is reported as 9 nM and the IC50 (HLA-A*02:01 [10]) is reported as 17 nM. For the same sequence, the IC50 (HLA-A*02:02) was 14 nM.

MSPDNALIY was tested, and the Kd (HLA-B*58:01 [11]) was 457 nM, the Kd (HLA-A*01:01 [12]) was 89.9 nM and the Kd (HLA-B*35:01) was 7.2 nM. The Kd (HLA-C*08:02) was no less than 20000 nM and the Kd (HLA-C*04:01 [13]) was no less than 20000 nM.

QVNDVLHSV was tested, and the Kd (HLA-B*18:01; [17]) was no less than 20000 nM, the Kd (HLA-A*02:12; [17]) was 91 nM and the Kd (HLA-B*27:03) was no less than 20000 nM. For the same sequence, the Kd (HLA-A*02:06 [5]; [17]) was 3 nM, the Kd (HLA-B*46:01; [17]) was no less than 20000 nM and the Kd (HLA-A*02:01 [6]; [17]) was 41 nM. For the same sequence, the Kd (HLA-B*15:01; [17]) was no less than 20000 nM, the Kd (HLA-A*03:01; [17]) was no less than 20000 nM and the Kd (HLA-B*57:01) was no less than 20000 nM.

Sequence TVIDVNTGK has a Kd (HLA-B*15:42) of no less than 5000 nM, a Kd (HLA-B*83:01) of no less than 5000 nM and a Kd (HLA-C*04:01 [14]) of no less than 5000 nM. It also gave a Kd (HLA-B*45:06) of no less than 5000 nM.

For VIYEAVIHL, the Kd (HLA-C*14:02) was 195 nM.
